# Positions of bridges follow the written chain, without caps; N, C: chain ends. No end group written: not given here.
# T1: IGFBP-1 (human, UniProt P08833 26-259)
# T1 construct: Biotinylated in the ELISA assays; also called rhIGFBP-1
# T1 sequence (looked up): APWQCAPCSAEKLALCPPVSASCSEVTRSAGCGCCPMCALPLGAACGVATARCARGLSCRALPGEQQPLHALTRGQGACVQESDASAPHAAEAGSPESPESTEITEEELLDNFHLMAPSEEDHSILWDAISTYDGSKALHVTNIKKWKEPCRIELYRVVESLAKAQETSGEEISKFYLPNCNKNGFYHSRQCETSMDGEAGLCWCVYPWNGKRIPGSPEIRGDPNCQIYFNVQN
# T2: recombinant human IGFBP-1 (human, UniProt P08833 26-259)
# T2 construct: Biotinylated in some assays; also called rhIGFBP-1
# T2 sequence (looked up): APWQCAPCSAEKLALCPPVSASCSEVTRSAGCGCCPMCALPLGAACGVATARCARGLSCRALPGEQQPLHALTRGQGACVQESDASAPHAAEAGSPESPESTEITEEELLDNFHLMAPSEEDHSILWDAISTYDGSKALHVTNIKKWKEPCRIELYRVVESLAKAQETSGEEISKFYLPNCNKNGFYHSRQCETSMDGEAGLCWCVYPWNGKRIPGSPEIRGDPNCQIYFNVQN
# Tests used:
# [1] = molecular target: T1, IGFBP-1; assay: BIAcore competition: peptide inhibits IGFBP-1 binding to IGF-I; ratio against bp1-14
# [2] = molecular target: T1, IGFBP-1; assay: BIAcore competition: peptide inhibits IGFBP-1 binding to IGF-I; ratio against bp1-16
# [3] = molecular target: T1, IGFBP-1; assay: BIAcore competition: peptide inhibits IGFBP-1 binding to IGF-II; position 3 is Ala in the wt
# [4] = molecular target: T1, IGFBP-1; assay: BIAcore competition: peptide inhibits IGFBP-1 binding to IGF-II; the reference itself
# [5] = molecular target: T1, IGFBP-1; assay: BIAcore competition: peptide inhibits IGFBP-1 binding to IGF-I; the reference itself
# [6] = molecular target: T1, IGFBP-1; assay: biotinylated-IGFBP-1 ELISA: peptide inhibits IGFBP-1 binding to IGF-I; the reference itself
# Description: (§1) The peptide/IGFBP mix was then removed and the plate was washed ten times with PBS buffer containing 0.05% TWEEN-20™ surfactant.
# [7] = molecular target: T1, IGFBP-1; assay: ELISA competition: peptide inhibits IGFBP-1 binding to IGF-I; the reference itself
# [8] = molecular target: T1, IGFBP-1; assay: BIAcore competition: peptide inhibits IGFBP-1 binding to IGF-I; position 3 is Ala in the wt
# [9] = molecular target: T1, IGFBP-1; assay: ELISA plate assay: peptide inhibits IGFBP-1 binding to IGF-I; the reference itself
# [10] = molecular target: T3, recombinant human IGFBP-3 (human, UniProt P17936 28-291); assay: cell-based or functional assay
# [11] = molecular target: T2, recombinant human IGFBP-1; assay: phage ELISA titration on IGFBP-1 plate with IGF-I (FIG. 28)
# Description: The plates were then washed ten times, as above, and a solution of rabbit anti-phage antibody mixed with a goat-anti-rabbit conjugate of horse radish peroxidase was added. After an incubation of 1 hour at room temperature, the plates were developed with a chromogenic substrate, o-phenylenediamine (Sigma). The reaction was stopped with addition of ½ volume of 2.5 M H_2SO_4. Optical density at 490 nm was measured on a spectrophotometric plate reader.
# [12] = molecular target: T1, IGFBP-1; assay: BIAcore competition (starred): peptide inhibits IGFBP-1 binding to IGF-I; ratio to bp1-01 (wt)
# [13] = molecular target: T4, IGFBP-3 (human, UniProt P17936 28-291); assay: BIAcore competition: peptide inhibits IGFBP-3 binding to IGF-I; the reference itself
# T4 construct: also called rhIGFBP-3
# [14] = molecular target: T1, IGFBP-1; assay: ELISA competition: peptide inhibits IGFBP-1 binding to IGF-I; ratio to bp1-01 (wt)
# [15] = molecular target: T3, recombinant human IGFBP-3; assay: BIAcore competition: peptide dilutions with 20 nM IGFBP-3 over immobilized IGF-II
# Description: IGF-II was immobilized on a dextran chip for inhibition assays using a BIAcore™ 2000 surface-plasmon-resonance device (BIAcore, Inc., Piscataway, N.J.) to measure free binding protein. IGF-II was biotinylated as described above, and injected over a chip to which streptavidin had been coupled (BIAcore, Inc.) to give approximately 1500 RU of immobilized IGF-II. […] After incubation for ≧1 hour at room temperature, an aliquot of 20 µl was injected at a flow rate of 20 µl/min over the IGF-II chip.
# [16] = molecular target: T2, recombinant human IGFBP-1; assay: cell-based or functional assay
# [17] = molecular target: T2, recombinant human IGFBP-1; assay: ELISA: peptide dilutions with 20 nM biotinylated IGFBP-1 on IGF-I coated plate
# Description: as §1
# [18] = molecular target: T1, IGFBP-1; assay: BIAcore competition: peptide inhibits IGFBP-1 binding to IGF-I; the reference bp1-16 itself
# [19] = molecular target: T1, IGFBP-1; assay: ELISA plate assay (starred peptide): peptide inhibits IGFBP-1 binding to IGF-I; ratio against bp1-14
# [20] = molecular target: T1, IGFBP-1; assay: ELISA plate assay (starred peptide): peptide inhibits IGFBP-1 binding to IGF-I; ratio against bp1-16
# T3 sequence (P17936 28-291 limits assumed): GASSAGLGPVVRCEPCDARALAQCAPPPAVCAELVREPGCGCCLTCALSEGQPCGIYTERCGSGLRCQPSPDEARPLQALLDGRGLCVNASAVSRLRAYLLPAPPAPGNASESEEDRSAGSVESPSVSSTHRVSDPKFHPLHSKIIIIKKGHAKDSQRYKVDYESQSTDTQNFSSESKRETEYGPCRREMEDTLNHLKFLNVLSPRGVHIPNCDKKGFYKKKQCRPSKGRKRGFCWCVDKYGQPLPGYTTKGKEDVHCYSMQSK
# T4 sequence (P17936 28-291 limits assumed): as above
binder,measurement,setting,value
"EARVCRAGPLQWLCEKYF-NH2 (disulfide 5-14 (inferred), g3 bp1-01 selectant) [bp1-20]",IC50 (114)/IC50 (mut),[1],2.6 ratio
same,IC50 (116)/IC50 (mut),[2],12 ratio
"CRAGPLQWLCEKYFG-NH2 (disulfide 1-10; N-terminus assumed; SMILES CC(C)C[C@@H]1NC(=O)[C@H](Cc2c[nH]c3ccccc23)NC(=O)[C@H](CCC(N)=O)NC(=O)[C@H](CC(C)C)NC(=O)[C@@H]2CCCN2C(=O)CNC(=O)[C@H](C)NC(=O)[C@H](CCCNC(=N)N)NC(=O)[C@@H](N)CSSC[C@@H](C(=O)N[C@@H](CCC(=O)O)C(=O)N[C@@H](CCCCN)C(=O)N[C@@H](Cc2ccc(O)cc2)C(=O)N[C@@H](Cc2ccccc2)C(=O)NCC(N)=O)NC1=O, Synthetic 15-mer; also called (wt); A3)",IC50 (mut)/IC50 (wt),[3],1 ratio
same,IC50 (mut)/IC50 (wt),[4],1 ratio
same,IC50 (mut)/IC50 (wt),[5],1 ratio
same,IC50 (mut)/IC50 (wt),[6],1 ratio
same,IC50 (mut)/IC50 (wt),[7],1 ratio
same,IC50 (mut)/IC50 (wt),[8],1 ratio
same,IC50 (mut)/IC50 (wt),[9],1 ratio
"CRAGPLQWLCEKYFSTY-NH2 (disulfide 1-10 (inferred), g3 bp1-01 selectant) [bp1-21B]",IC50 (114)/IC50 (mut),[1],0.67 ratio
same,IC50 (116)/IC50 (mut),[2],3.1 ratio
SEEVCWPVAEWYLCN (disulfide 5-14) [BP15],"IC50, KIRA assay (peptide with IGFBP-3:IGF-1 at a 3:1 ratio)",[10],95000 nM
"SEVGCRAGPLQWLCEKYF (peptide, not shown: large carriers, not fully specified (C-terminus, bridges); cysteine pairing not given here; also: polyvalent display on phage particle, Tested as a whole phage particle with polyvalent display; also called g8-phage peptide bp1-01) [peptide-phage clone HL-1 (g8 display)]",binding result,[11],binds
CKEGPLQWLCEKYF (g8 bp1-01 selectant) [bp1-12],IC50 (mut)/IC50 (wt),[12],2.9 ratio
CKEGPLLWLCEKYF (g8 bp1-01 selectant) [bp1-13],IC50 (mut)/IC50 (wt),[12],2.5 ratio
SEEVCWPVAEWYLCNMWG (disulfide 5-14) [bp3-01-ox],IC50 (mut)/IC50 (wt),[13],1 ratio
CRAGPLQWLCEKAA [bp1-18],IC50 (mut)/IC50 (wt),[14],148 ratio
"VAWEVCWDRHDQGYICTTDS (disulfide 6-16, Synthetic peptide corresponding to phage clone 4D3.11 (g8) and 3Bi.1 (g3); also called BP14; BP3-4D3.11 (BP14)) [BP3-4D3.11]",IC50,[15],1000 nM
"SEVGCRAGPLQWLCEKYFG-NH2 (disulfide 5-14; N-terminus assumed; SMILES CC(C)C[C@@H]1NC(=O)[C@H](Cc2c[nH]c3ccccc23)NC(=O)[C@H](CCC(N)=O)NC(=O)[C@H](CC(C)C)NC(=O)[C@@H]2CCCN2C(=O)CNC(=O)[C@H](C)NC(=O)[C@H](CCCNC(=N)N)NC(=O)[C@@H](NC(=O)CNC(=O)[C@@H](NC(=O)[C@H](CCC(=O)O)NC(=O)[C@@H](N)CO)C(C)C)CSSC[C@@H](C(=O)N[C@@H](CCC(=O)O)C(=O)N[C@@H](CCCCN)C(=O)N[C@@H](Cc2ccc(O)cc2)C(=O)N[C@@H](Cc2ccccc2)C(=O)NCC(N)=O)NC1=O, 19-mer variant of bp1-01; also called bp1-02 (bp3)) [bp1-02]","IC50, KIRA assay (peptide plus IGF-I plus IGFBP-1)",[16],187 nM
same,IC50,[17],50 nM
"CRAGPLQWLCEKYF-NH2 (disulfide 1-10 (inferred), bp1-01 lacking the C-terminal Gly) [bp1-16]",IC50 (114)/IC50 (mut),[1],0.21 ratio
same,IC50 (116)/IC50 (mut),[18],1 ratio
CRKGPLQWLCEKYF (g8 bp1-01 selectant) [bp1-11],IC50 (mut)/IC50 (wt),[12],1.9 ratio
"CRAGPLQWLCEKYFG-NH2 (disulfide 1-10; N-terminus assumed; SMILES CC(C)C[C@@H]1NC(=O)[C@H](Cc2c[nH]c3ccccc23)NC(=O)[C@H](CCC(N)=O)NC(=O)[C@H](CC(C)C)NC(=O)[C@@H]2CCCN2C(=O)CNC(=O)[C@H](C)NC(=O)[C@H](CCCNC(=N)N)NC(=O)[C@@H](N)CSSC[C@@H](C(=O)N[C@@H](CCC(=O)O)C(=O)N[C@@H](CCCCN)C(=O)N[C@@H](Cc2ccc(O)cc2)C(=O)N[C@@H](Cc2ccccc2)C(=O)NCC(N)=O)NC1=O, also called bp1-01 (bp3))","IC50, KIRA assay (peptide plus IGF-I plus IGFBP-1)",[16],397 nM
same,IC50,[17],180 nM
"SEMVCRAGPLQWLCEIYF-NH2 (disulfide 5-14 (inferred), g3 bp1-01 selectant) [bp1-19]",IC50 (114)/IC50 (mut),[19],2.1 ratio
same,IC50 (116)/IC50 (mut),[20],9.9 ratio
"SEVGCRAGPLQWLCEKYFSTY-NH2 (disulfide 5-14 (inferred), g3 bp1-01 selectant) [bp1-21A]",IC50 (114)/IC50 (mut),[1],3.2 ratio
same,IC50 (116)/IC50 (mut),[2],15 ratio

# — patent US6949349
